Measured values from patent US20140112919A1, “INTERLEUKIN-10 ANTIBODIES” (MERCK SHARP & DOHME CORP., published 2014).

Biological target: humanized anti-human IL-10 antibody SCH 708980 (12G8) (Homo sapiens)
Test: competitive ECLA (IGEN): unlabeled IL-10 titrated against hIL-10-biotin for binding to humanized 12G8-1
Protocol: 96 well Polypropylene plates (Costar, Cat. No. 3365, Fisher Sci. Cat. No. 07200697); assay buffer of 0.1% BSA, 0.05% tween 20, PBS pH 7.5; paramagnetic beads (Streptavidin-Dynabeads, Igen, Inc., Cat. No. 110029); recombinant human IL-10 dimer (hIL-10-dimer); recombinant human IL-10-monomer (hIL-10-mono); recombinant mouse IL-10 (mIL-10); recombinant cyno IL-10 (cyno IL-10); and recombinant hIL-10Ra (hIL-10Ra): FLAG-tagged protein. Ori-Tag labeled anti-FLAG M2 monoclonal antibodies were prepared using Ori-Tag-NHS ester (Igen, Inc. Cat. No. 110034) according to manufacturer's protocol (OriTag label: IgG challenge ratio 8:1). Anti-Flag M2 monoclonal antibodies were purchased from Sigma (Cat. No. F3165). Ori-Tag labeled anti hIgG 1A2 monoclonal antibodies were prepared as above using rat anti hIgG monoclonal antibodies. Ori-Tag labeled anti rat IgG antibodies were prepared as above from polyclonal Goat anti rat IgG (H+L) antibodies (Jackson Immunoresearch Laboratories, Inc. PA, Cat. No. 112-005-143). Biotinylated recombinant human IL-10
1/3 serial dilutions in 50 microliters of the assay buffer were made in 96-well microtiter plate for all unlabeled IL-10 preparations (mIL-10, cyno IL-10, hIL-10 dimer, hIL-10 mono) starting with 3 μg/ml in the first well. […] Percent inhibition of the signal by unlabeled IL-10 preparations was calculated relative to the control samples. […]

humanized anti-human IL-10 antibody SCH 708980 (12G8) (Homo sapiens), sequence (VH, as listed by the source, chain 1 of 2): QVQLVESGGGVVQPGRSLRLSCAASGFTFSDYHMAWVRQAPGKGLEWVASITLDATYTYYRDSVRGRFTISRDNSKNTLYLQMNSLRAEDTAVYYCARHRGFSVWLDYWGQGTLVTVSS
humanized anti-human IL-10 antibody SCH 708980 (12G8) (Homo sapiens), sequence (VL, as listed by the source, chain 2 of 2): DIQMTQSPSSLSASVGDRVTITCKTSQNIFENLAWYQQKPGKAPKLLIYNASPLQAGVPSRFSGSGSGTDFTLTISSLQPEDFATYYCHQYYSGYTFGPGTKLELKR

IC50: 5.8 nM
B1: recombinant human IL-10-monomer (ligand)
chain: SPGQGTQSENSCTHFPGNLPNMLRDLRDAFSRVKTFFQMKDQLDNLLLKESLLEDFKGYLGCQALSEMIQFYLEEVMPQAENQDPDIKAHVNSLGENLKTLRLRLRRCHRFLPCENKSKAVEQVKNAFNKLQEKGIYKAMSEFDIFINYIEAYMTMKIRN
